2 substances from patent publication US7192728B2, “Screening assays for agents that alter inhibitor of apoptosis (IAP) protein regulation of caspase activity” (The Burnham Institute, priority 1997, dated 2007) can be followed below.

One experiment deals with T1, caspase-3 (Homo sapiens, UniProt P42574).
T1 construct: to produce the 17–20 kDa mature, fully processed large subunit of the active caspase-3 enzyme; a smaller, fully processed, subunit of about 11 kDa; His6; made in house; host or cells: E. coli BL21(DE3)pLysS
T1 sequence (P42574 29-175 limits assumed): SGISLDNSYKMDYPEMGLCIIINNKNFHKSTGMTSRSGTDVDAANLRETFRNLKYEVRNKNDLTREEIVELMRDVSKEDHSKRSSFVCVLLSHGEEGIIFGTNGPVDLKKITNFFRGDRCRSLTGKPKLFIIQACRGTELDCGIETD
T1 sequence (P42574 176-277 limits assumed): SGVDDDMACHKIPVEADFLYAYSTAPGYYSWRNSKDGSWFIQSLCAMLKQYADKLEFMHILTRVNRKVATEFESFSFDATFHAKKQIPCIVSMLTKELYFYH
Kind of experiment: GST pull-down binding to caspase-3. As to conditions: glutathione-Sepharose beads, immunoblot. The procedure:
(§1) Following incubation at 4° C. for 60 min, the beads were removed by centrifugation and washed twice with 100 vol 50 mM Tris (pH 7.5), 150 mM KCl, 2 mM DTT and 0.025% Triton-X100, then subjected to SDS-PAGE and immunoblot assay (see Example I.B.3).

The next experiment has as its target T2, caspase-7 (Homo sapiens, UniProt P55210).
T2 construct: Purified active caspase concentrations ranged from 0.1 nM to 10 nM; His6; made in house; host or cells: E. coli BL21(DE3)pLysS
T2 sequence (P55210 24-198 limits assumed): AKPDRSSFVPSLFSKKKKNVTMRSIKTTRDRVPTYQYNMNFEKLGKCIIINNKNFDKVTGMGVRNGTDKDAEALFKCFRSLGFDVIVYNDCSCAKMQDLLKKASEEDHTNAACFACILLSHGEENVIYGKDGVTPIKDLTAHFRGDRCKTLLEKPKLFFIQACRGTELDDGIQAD
T2 sequence (P55210 207-303 limits assumed): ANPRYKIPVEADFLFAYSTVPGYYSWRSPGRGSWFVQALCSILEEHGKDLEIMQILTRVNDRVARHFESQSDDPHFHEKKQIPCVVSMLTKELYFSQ
Description: GST pull-down binding to caspase-7. As to conditions: glutathione-Sepharose beads, immunoblot. The procedure:
as §1

In another experiment the test system is 293T cells. Kind of experiment: Caspase-9-induced pro-caspase-3 processing and apoptosis in transfected 293T cells. The experiment is classed as cell-based, human. As to conditions: co-transfection with FLAG-caspase-9; for number of apoptotic 293T cells (in words): DAPI staining. The procedure:
(§2) Co-immunoprecipitations and immunoblot assays were performed as follows. […] Cells were collected 24–48 hrs later by centrifugation, washed in ice cold PBS and lysed for 20 minutes in lysis buffer (10 mM Hepes, 142 mM KCl, 5 mM MgCl2, 1 mM EGTA, 0.2% NP-40). Lysates were cleared by centrifugation at 16,000×g for 30 minutes. Myc-tagged IAP proteins were immunoprecipitated with 40 μl of anti-myc 9E10 antibody immobilized on Protein G-Sepharose (Santa Cruz) for 2 hrs. Immunoprecipitates were washed 3 times with lysis buffer, and bound proteins separated by SDS-PAGE and analyzed by immunoblotting using antibodies specific for the FLAG epitope (Kodak, Inc.), myc-epitope, or caspase-3.
Cell lysates were prepared 16 hr later for either (A) immunoblot analysis of caspase-3, or (B) DEVD-AFC. Immunoblot analysis of pro-caspase-3 was performed with lysates from cells induced to undergo apoptosis by overexpressing pro-caspase-9 in the absence or presence of the IAPs. For DEVD-AFC analysis, lysates were normalized for total protein content and assayed for hydrolysis of DEVD-AFC as described above. […] In panel D, IAP proteins were immunoprecipitated with anti-myc antibody immobilized on protein G-Sepharose at ˜16 hours post-transfection. Immunoblot analysis with anti-FLAG antibody was employed for detection of pro-caspase-9 in the resulting immune complexes. Lysates from the same cell (50 μg per lane) were also analyzed by immunoblotting using anti-FLAG and anti-myc antibodies to verify expression of […].

Experiment [1] has as its target T3, pro-caspase-9 (Homo sapiens, UniProt P55211).
T3 construct: in vitro translated ^35S-labeled pro-caspase-9 and Apaf-1 were incubated individually or together; His6; made in house; host or cells: coupled in vitro transcription/translation in reticulocyte lysate (TNT kit, Promega)
T3 sequence (P55211 1-416): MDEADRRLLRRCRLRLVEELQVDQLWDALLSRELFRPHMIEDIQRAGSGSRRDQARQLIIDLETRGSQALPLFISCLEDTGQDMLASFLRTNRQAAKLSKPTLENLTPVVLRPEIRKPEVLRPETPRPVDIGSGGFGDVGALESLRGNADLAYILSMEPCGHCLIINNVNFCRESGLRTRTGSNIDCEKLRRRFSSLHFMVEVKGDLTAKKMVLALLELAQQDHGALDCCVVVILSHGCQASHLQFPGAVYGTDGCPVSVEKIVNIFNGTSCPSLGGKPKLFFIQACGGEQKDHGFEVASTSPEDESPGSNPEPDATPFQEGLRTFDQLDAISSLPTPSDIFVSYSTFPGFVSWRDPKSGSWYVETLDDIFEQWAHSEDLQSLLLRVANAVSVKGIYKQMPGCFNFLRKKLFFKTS
Kind of experiment: GST pull-down binding of in vitro translated pro-caspase-9. The note with it: about 2 μM GST protein on glutathione-Sepharose.
Description: After extensive washing, bound proteins were analyzed by SDS-PAGE and autoradiography. As a positive control, 1.5 μl of the in vitro translated reaction (IVT) was analyzed.

In experiment [2] the test system is pro-caspase-9. Description: Co-immunoprecipitation of pro-caspase-9 with myc-tagged IAPs in 293T cells. The note with it: anti-myc immunoprecipitation, anti-FLAG blot. The experiment is classed as binding, human. The procedure: as §2
Cell lysates were prepared 16 hr later for either (A) immunoblot analysis of caspase-3, or (B) DEVD-AFC. Immunoblot analysis of pro-caspase-3 was performed with lysates from cells induced to undergo apoptosis by overexpressing pro-caspase-9 in the absence or presence of the IAPs. For DEVD-AFC analysis, lysates were normalized for total protein content and assayed for hydrolysis of DEVD-AFC as described above. […] Lysates from the same cell (50 μg per lane) were also analyzed by immunoblotting using anti-FLAG and anti-myc antibodies to verify expression of […].

The target in experiment [3] is T3, pro-caspase-9. Description: In vitro reconstituted pro-caspase-9 processing (Apaf-1, cytochrome c, dATP). In kind it is biochemical. The note with it: 0.1 μM protein; Apaf-1, 10 μM cytochrome c, 1 mM dATP.
Description: For the results shown in FIGS. 5A and 5B, in vitro translated ^35S-labeled pro-caspase-9 and Apaf-1 were incubated individually or together with 10 μM cytochrome c and 1 mM dATP. Processing of pro-caspase-9 in the absence or presence of 0.1 μM of the indicated GST-IAP or 0.1 μM Bcl-XL was then monitored by SDS-PAGE and autoradiography.
To assay caspase-9 activation in vitro, one microgram of plasmids containing cDNAs encoding pro-caspase-9 (pET21(b)-Mch-6) or Apaf-1 (pcDNA3-Apaf-1) was in vitro transcribed and translated in the presence of [^35S]-L-methionine using a coupled transcription/translation TNT kit (Promega) according to manufacturer's instructions. Proteins were desalted and exchanged into Buffer A with Bio-spin P-6 columns (BioRad). […] The reactions were analyzed by SDS-PAGE and autoradiography. For some experiments, in vitro translated His6-caspase-9 was purified by metal chromatography.

“c-IAP-2: cellular IAP protein c-IAP-2/HIAP-1/hMIHC, recombinant GST fusion or myc-tagged”: the “binding of caspase-3 (in words)” value with caspase-3 is “bound”. For the same substance, the “binding of caspase-7 (in words)” value with caspase-7 was “bound”. In addition, in the experiment on 293T cells, the “caspase-9-induced cleavage of pro-caspase-3 and Ac-DEVD-AFC cleavage activity (in words)” value is listed as “markedly reduced”; the “number of apoptotic 293T cells (in words)” value is reported as “a reduction in the number of apoptotic 293T cells”. Besides, the “association with in vitro translated pro-caspase-9 (in words)” value with pro-caspase-9 [1] was “associated with pro-caspase-9”. Besides, the “co-immunoprecipitation of the zymogen form of caspase-9 (in words)” value in the experiment with pro-caspase-9 [2] is on record as “co-immunoprecipitated”. In addition, the “pro-caspase-9 processing in reconstituted system (in words)” value with pro-caspase-9 [3] is “completely blocked”.
On to “XIAP: X chromosome linked inhibitor of apoptosis protein (Genbank U32974), used mostly as recombinant GST fusion or expressed from plasmid”, for which the “binding of caspase-3 (in words)” value with caspase-3 is listed as “Specific binding”. Also, in the experiment with caspase-7, the “binding of caspase-7 (in words)” value is recorded as “Specific binding”. Besides, in the experiment with 293T cells, the “caspase-9-induced cleavage of pro-caspase-3 and Ac-DEVD-AFC cleavage activity (in words)” value is listed as “markedly reduced”; the “number of apoptotic 293T cells (in words)” value is reported as “a reduction in the number of apoptotic 293T cells”. For the same substance, the “association with in vitro translated pro-caspase-9 (in words)” value with pro-caspase-9 [1] was “associated with pro-caspase-9”. For the same substance, in the experiment with pro-caspase-9 [2], the “co-immunoprecipitation of the zymogen form of caspase-9 (in words)” value is “co-immunoprecipitated”. In addition, the “pro-caspase-9 processing in reconstituted system (in words)” value with pro-caspase-9 [3] is “completely blocked”.
